Legend:
thrombin [1] = biological target: T1, thrombin (UniProt P00734;P00734 328-363;364-622); assay: kinetic exclusion assay (KinExA), two-population competitive fit; hypothetical second FA population (16%); the other 84% fixed at Kd 298 pM; PBS with 0.02% sodium azide and 1 mg/mL BSA; incubation 2 h (50 pM, 1 nM FA) or 6.5 h (10 pM FA); thrombin 5 pM to 1 uM; pH and temperature not stated
thrombin [2] = biological target: T1, thrombin; assay: kinetic exclusion assay (KinExA), n-curve analysis; 1:1 model; FA 10 pM, 50 pM, 1 nM; fitted FA activity ~47%; 1:1 fit deviates at high thrombin; PBS with 0.02% sodium azide and 1 mg/mL BSA; incubation 2 h (50 pM, 1 nM FA) or 6.5 h (10 pM FA); thrombin 5 pM to 1 uM; pH and temperature not stated

Question: What does the source list for AGTCCGTGGTAGGGCAGGTTGGGGTGACT (structured_DNA) [29-nt thrombin aptamer (Tasset et al.), fluorescent aptamer FA]?
Answer: Kd (thrombin [1]): 500 nM; Kd (thrombin [2]): 0.298 nM

Reference: paper PMC7348807
